Results: US11015206B2, “Compositions and methods comprising sequences having hydroxyphenylpyruvate dioxygenase (HPPD) activity” (PIONEER HI-BRED INTERNATIONAL, INC., priority 2014, dated 2021)
Residue numbers refer to the chain shown, from its start. Numbers in names are those of the source. Each block holds one molecule with its values, some of them ahead of it.

Experiments:
Type in all cases: biochemical, Z. mays
[1] = tested on: 4-hydroxyphenylpyruvate dioxygenase (HPPD); assay: ON rate ratio: HPPD reaction rate with vs without inhibitor in the 70 to 90 second interval; details: Table 5; tembotrione
Procedure, shortened: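 Indicator of inhibitor on-rate: reaction velocity in the 70 to 90 second window with 4 μM inhibitor divided by that without. Reactions contained 100 μM HPP and 60 or 120 nM HPPD; slower binding gives a larger ratio.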

[2] = tested on: 4-hydroxyphenylpyruvate dioxygenase (HPPD); assay: OFF rate ratio: release of inhibitor from pre-formed enzyme-inhibitor complex; details: Table 5; tembotrione
Procedure, shortened: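 Inhibitor release from pre-formed complex (enzyme 7.2 μM, inhibitor 8 μM, 1 h RT) tracked as accelerating HPPD activity at 320 nm over 12 min, coupled via 50 nM HGD with 100 μM HPP at pH 7. OFF rate ratio: steady-state velocity relative to uninhibited initial velocity.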

[3] = tested on: 4-hydroxyphenylpyruvate dioxygenase (HPPD); assay: Insensitivity parameter (ON × OFF) and trait fitness (ON × OFF × kcat/KM or × kcat); details: for ON × OFF × kcat, Value / ON × OFF × kcat, Fold vs wt / ON × OFF, fold vs wt / ON × OFF (parameters with tembotrione): Table 5, tembotrione; for ON × OFF × kcat, Fold vs wt / ON × OFF, fold vs wt: fold vs maize wild type HPPD; for ON × OFF (parameters with tembotrione): insensitivity parameter
Procedure, shortened: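 Trait fitness combines catalysis and insensitivity as kcat/KM × ON rate ratio × OFF rate ratio. The insensitivity parameter is the product of ON and OFF rate ratios, used in place of KD because the ON rate ratio is inverse.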

[4] = tested on: 4-hydroxyphenylpyruvate dioxygenase (HPPD); assay: HPPD activity coupled assay with HGD; substrate saturation kinetic parameters (kcat, KM); details: Table 6; for kcat: single substitutions in SEQ ID NO:2
Procedure, shortened: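 Coupled continuous assay: His-tagged HPPD (5 to 240 nM, E. coli-expressed, Ni-NTA-purified) with 50 nM P. aeruginosa HGD in 25 mM Hepes pH 7, 2 mM ascorbate, 10 μM FeSO4; maleylacetoacetate followed at 320 nm. KM and Vmax from Lineweaver-Burke fits over 3.33–100 μM HPP.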

[5] = tested on: 4-hydroxyphenylpyruvate dioxygenase (HPPD); assay: Estimate of kcat from initial rate at saturating hydroxyphenylpyruvate without inhibitor (ON rate ratio assay); details: Table 5; single substitutions in Round 7 variant 9070 (SEQ ID NO:2); estimate from initial rate at saturating hydroxyphenylpyruvate without inhibitor
Procedure, shortened: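 kcat was estimated from the initial reaction rate with known enzyme level (60 or 120 nM HPPD). Hydroxyphenylpyruvate was at a saturating 100 μM, with no inhibitor present.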

[6] = DKN (diketonitrile form of isoxaflutole)

B3: 360L: single substitution 360L in SEQ ID NO:2 (protein)
chain: MGPTPTATAAGAAVAAASAAEQAAFRLVGHRNFVRFNPRSDRFQTLAFHHVELWCADAASAAGRFSFALGVPLAARSDLSTGNSAHASLLLRSGSLSLLFTAPYAHGADAATAALPSFSAAAARRFAADHGLAVRAVALRVADAEDAFRASVAAGARPAFGPVDLGRGFRLAEVELYGDVVLRYVSYPDGAAGEPFLPGFEGVASPGAADYGLSRFDHIVGNVPELAPAAAYMAGFTGFHEFAEFTTEDVGTTESGLNSMALANNSENVLLPLNEPVHGTKRRSQIQTFLDHHGGPGVQHIALASDDVLRTLREMRARSAMGGFEFLPPPLSDYYDGVRRCAGDVLTEAQINECQELGVLVDRDDQGVLLQIFTKPVGDRPTFFLEIIQRIGCMEKDEKGQEYQKGGCGGFGKGNFGQLFKSIEDYEKSLEAKQAAAAATAQGS
modifications: Zea mays variant form created by artificial means.
ON ratio (parameters with tembotrione) [1]: 0.77
OFF ratio (parameters with tembotrione) [2]: 0.22
Insensitivity parameter, ON × OFF [3, 6]: 0.34
Insensitivity parameter, ON × OFF ([3]; Mesotrione, Table 6): 0.51
Insensitivity parameter, ON × OFF ([3]; Sulcotrione): 0.63
ON × OFF × kcat, Value [3]: 4.41
ON × OFF × kcat, Fold vs wt [3]: 4.12
ON × OFF, fold vs wt [3]: 32.6
ON × OFF (parameters with tembotrione) [3]: 0.17
Insensitivity parameter, ON × OFF ([3]; Tembotrione): 0.25
Insensitivity parameter, ON × OFF ([3]; Topramezon): 0.32
Km [4]: 1.71 µM
kcat [4]: 0.543 s⁻¹
kcat [5]: 0.442 s⁻¹

B5: 189P: single substitution 189P in SEQ ID NO:2 (protein)
chain: B3 chain with D189P, L360M
modifications: Zea mays variant form created by artificial means.
ON ratio (parameters with tembotrione) [1]: 0.76
OFF ratio (parameters with tembotrione) [2]: 0.22
Insensitivity parameter, ON × OFF [3, 6]: 0.32
Insensitivity parameter, ON × OFF ([3]; Mesotrione, Table 6): 0.51
Insensitivity parameter, ON × OFF ([3]; Sulcotrione): 0.62
ON × OFF × kcat, Value [3]: 4.31
ON × OFF × kcat, Fold vs wt [3]: 4.02
ON × OFF, fold vs wt [3]: 32.3
ON × OFF (parameters with tembotrione) [3]: 0.16
Insensitivity parameter, ON × OFF ([3]; Tembotrione): 0.25
Insensitivity parameter, ON × OFF ([3]; Topramezon): 0.31
Km [4]: 3.35 µM
kcat [4]: 0.697 s⁻¹
kcat [5]: 0.437 s⁻¹

B6: 191L: single substitution 191L in SEQ ID NO:2 (protein)
chain: B3 chain with A191L, L360M
modifications: Zea mays variant form created by artificial means.
ON ratio (parameters with tembotrione) [1]: 0.77
OFF ratio (parameters with tembotrione) [2]: 0.20
Insensitivity parameter, ON × OFF [3, 6]: 0.38
Insensitivity parameter, ON × OFF ([3]; Mesotrione, Table 6): 0.45
Insensitivity parameter, ON × OFF ([3]; Sulcotrione): 0.56
ON × OFF × kcat, Value [3]: 3.35
ON × OFF × kcat, Fold vs wt [3]: 3.13
ON × OFF, fold vs wt [3]: 30.5
ON × OFF (parameters with tembotrione) [3]: 0.16
Insensitivity parameter, ON × OFF ([3]; Tembotrione): 0.33
Insensitivity parameter, ON × OFF ([3]; Topramezon): 0.37
Km [4]: 2.74 µM
kcat [4]: 0.548 s⁻¹
kcat [5]: 0.358 s⁻¹

B7: 205T: single substitution 205T in SEQ ID NO:2 (protein)
chain: B3 chain with S205T, L360M
modifications: Zea mays variant form created by artificial means.
ON ratio (parameters with tembotrione) [1]: 0.74
OFF ratio (parameters with tembotrione) [2]: 0.20
Insensitivity parameter, ON × OFF [3, 6]: 0.30
Insensitivity parameter, ON × OFF ([3]; Mesotrione, Table 6): 0.47
Insensitivity parameter, ON × OFF ([3]; Sulcotrione): 0.60
ON × OFF × kcat, Value [3]: 3.72
ON × OFF × kcat, Fold vs wt [3]: 3.48
ON × OFF, fold vs wt [3]: 29.0
ON × OFF (parameters with tembotrione) [3]: 0.15
Insensitivity parameter, ON × OFF ([3]; Tembotrione): 0.22
Insensitivity parameter, ON × OFF ([3]; Topramezon): 0.29
Km [4]: 2.72 µM
kcat [4]: 0.573 s⁻¹
kcat [5]: 0.418 s⁻¹

B9: 227G: single substitution 227G in SEQ ID NO:2 (protein)
chain: B3 chain with A227G, L360M
modifications: Zea mays variant form created by artificial means.
ON ratio (parameters with tembotrione) [1]: 0.79
OFF ratio (parameters with tembotrione) [2]: 0.15
Insensitivity parameter, ON × OFF [3, 6]: 0.26
Insensitivity parameter, ON × OFF ([3]; Mesotrione, Table 6): 0.52
Insensitivity parameter, ON × OFF ([3]; Sulcotrione): 0.63
ON × OFF × kcat, Value [3]: 4.09
ON × OFF × kcat, Fold vs wt [3]: 3.83
ON × OFF, fold vs wt [3]: 23.2
ON × OFF (parameters with tembotrione) [3]: 0.12
Insensitivity parameter, ON × OFF ([3]; Tembotrione): 0.22
Insensitivity parameter, ON × OFF ([3]; Topramezon): 0.28
Km [4]: 2.61 µM
kcat [4]: 0.755 s⁻¹
kcat [5]: 0.577 s⁻¹

Second part, led by results:

ON ratio (parameters with tembotrione) [1]: 0.75
OFF ratio (parameters with tembotrione) [2]: 0.33
Insensitivity parameter, ON × OFF [3, 6]: 0.33
Insensitivity parameter, ON × OFF ([3]; Mesotrione, Table 6): 0.65
Insensitivity parameter, ON × OFF ([3]; Sulcotrione): 0.78
ON × OFF, fold vs wt [3]: 48.2
ON × OFF (parameters with tembotrione) [3]: 0.25
Insensitivity parameter, ON × OFF ([3]; Tembotrione): 0.34
Insensitivity parameter, ON × OFF ([3]; Topramezon): 0.49
B1: 385V: single substitution L385V in SEQ ID NO:2 (protein)
chain: B3 chain with L360M, L385V
modifications: Zea mays variant form created by artificial means.
ON × OFF × kcat/km fold vs Round 7, variant 9070 ([3]; DKN (isoxaflutole diketonitrile)): 1.1
ON × OFF × kcat/km fold vs Round 7, variant 9070 ([3]; Sulco (sulcotrione)): 1.0
ON × OFF × kcat, Value [3]: 5.26
ON × OFF × kcat, Fold vs wt [3]: 4.92
ON × OFF × kcat/km fold vs Round 7, variant 9070 ([3]; Topra (topramezone)): 1.3
ON × OFF × kcat/km fold vs Round 7, variant 9070 ([3]; meso (mesotrione)): 1.0
ON × OFF × kcat/km fold vs Round 7, variant 9070 ([3]; tembo (tembotrione)): 1.4
Km [4]: 1.91 µM
kcat [4]: 0.505 s⁻¹
kcat [5]: 0.357 s⁻¹

ON ratio (parameters with tembotrione) [1]: 0.68
OFF ratio (parameters with tembotrione) [2]: 0.34
Insensitivity parameter, ON × OFF [3, 6]: 0.37
Insensitivity parameter, ON × OFF ([3]; Mesotrione, Table 6): 0.39
Insensitivity parameter, ON × OFF ([3]; Sulcotrione): 0.16
ON × OFF, fold vs wt [3]: 46.0
ON × OFF (parameters with tembotrione) [3]: 0.23
Insensitivity parameter, ON × OFF ([3]; Tembotrione): 0.31
Insensitivity parameter, ON × OFF ([3]; Topramezon): 0.32
B2: 376W: single substitution 376W in SEQ ID NO:2 (protein)
chain: B3 chain with L360M, P376W
modifications: Zea mays variant form created by artificial means.
ON × OFF × kcat, Value [3]: 5.42
ON × OFF × kcat, Fold vs wt [3]: 5.07
Km [4]: 5.51 µM
kcat [4]: 0.602 s⁻¹
kcat [5]: 0.385 s⁻¹

ON ratio (parameters with tembotrione) [1]: 0.75
OFF ratio (parameters with tembotrione) [2]: 0.22
Insensitivity parameter, ON × OFF [3, 6]: 0.29
Insensitivity parameter, ON × OFF ([3]; Mesotrione, Table 6): 0.45
Insensitivity parameter, ON × OFF ([3]; Sulcotrione): 0.58
ON × OFF, fold vs wt [3]: 32.4
ON × OFF (parameters with tembotrione) [3]: 0.17
Insensitivity parameter, ON × OFF ([3]; Tembotrione): 0.20
Insensitivity parameter, ON × OFF ([3]; Topramezon): 0.27
B4: 390N: single substitution 390N in SEQ ID NO:2 (protein)
chain: B3 chain with L360M, R390N
modifications: Zea mays variant form created by artificial means.
ON × OFF × kcat, Value [3]: 5.00
ON × OFF × kcat, Fold vs wt [3]: 4.67
Km [4]: 2.86 µM
kcat [4]: 0.837 s⁻¹
kcat [5]: 0.505 s⁻¹

ON ratio (parameters with tembotrione) [1]: 0.80
OFF ratio (parameters with tembotrione) [2]: 0.16
Insensitivity parameter, ON × OFF [3, 6]: 0.26
Insensitivity parameter, ON × OFF ([3]; Mesotrione, Table 6): 0.53
Insensitivity parameter, ON × OFF ([3]; Sulcotrione): 0.59
ON × OFF, fold vs wt [3]: 24.5
ON × OFF (parameters with tembotrione) [3]: 0.13
Insensitivity parameter, ON × OFF ([3]; Tembotrione): 0.19
Insensitivity parameter, ON × OFF ([3]; Topramezon): 0.27
B8: 431F: single substitution 431F in SEQ ID NO:2 (protein)
chain: B3 chain with L360M, E431F
modifications: Zea mays variant form created by artificial means.
ON × OFF × kcat, Value [3]: 3.61
ON × OFF × kcat, Fold vs wt [3]: 3.37
Km [4]: 1.77 µM
kcat [4]: 0.513 s⁻¹
kcat [5]: 0.482 s⁻¹
